The assay deals with Rac1-GMPPNP (UniProt P63000). As to the kind of experiment: equilibrium dialysis. On the technique in general: Equilibrium dialysis compares concentrations on both sides of a semipermeable membrane.

One may read the Kd as the constant that tells how readily two partners part at equilibrium. High values mean a looser complex, low ones a tighter complex. In the case of “ΔWRC (VCA-deleted WRC, containing WAVE1(1-186)) (from UniProt Q7L576;Q9Y2A7;Q92558;Q9NYB9;Q8WUW1) (complex)”, the Kd was in the range of 1000 to 2000 nM.

The values are drawn from article PMC3085272.
